Reference: patent publication US20230295272A1

Columns and labels:
[1] = target: canine parvovirus (CPV), CPV-2c TS02 strain, purified virus (canine parvovirus CPV-2c (TS02 strain)); experiment: cell-based or functional assay
[2] = target: canine parvovirus (CPV), CPV-2c TS02 strain, purified virus (canine parvovirus CPV-2c (TS02 strain)); experiment: indirect ELISA, purified CPV coated at 10 ug/mL, purified nanobody diluted 1:10, anti-His-HRP
[3] = target: canine parvovirus (CPV), CPV-2c TS02 strain, purified virus (canine parvovirus CPV-2c (TS02 strain)); experiment: indirect ELISA, purified CPV coated at 10 ug/mL, purified nanobody diluted 1:100, anti-His-HRP
[4] = target: canine parvovirus (CPV), CPV-2c TS02 strain, purified virus (canine parvovirus CPV-2c (TS02 strain)); experiment: indirect ELISA, purified CPV coated at 10 ug/mL, purified nanobody diluted 1:1,000, anti-His-HRP
[5] = target: canine parvovirus (CPV), CPV-2c TS02 strain, purified virus (canine parvovirus CPV-2c (TS02 strain)); experiment: indirect ELISA, purified CPV coated at 10 ug/mL, purified nanobody diluted 1:10,000, anti-His-HRP

B1: canine parvovirus (CPV) nanobody CPV-VHH-E3 (VHH)
VHH: QLQLVESGGGSVQPGGSLRLSCAASGFTLDFYRVGWFRQAPGKERQGVACIGSAGDRTFYVDSVKGRFTISKDNTKNTVYLQMNSLKPEDTAVYYCAAVLSPRITSVQAMCTHHGEGFDYWGQGTQVTVSS
Q: B1 was tested. Which CPE number at antibody dilution 1:10 (of 3 wells with CPE) [1] did it give?
A: Its CPE number at antibody dilution 1:10 (of 3 wells with CPE) is 3.

Q: What about the neutralizing titer (virus neutralization test, CPE on CRFK cells) (titer (1:x dilution)) [1] of the same binder?
A: The neutralizing titer (virus neutralization test, CPE on CRFK cells) (titer (1:x dilution)) was < 10.

Q: What about the OD450nm average value [2] of the same binder?
A: Its OD450nm average value is 2.81 OD450nm.

Q: And the OD450nm average value [3]?
A: The OD450nm average value was 2.6 OD450nm.

Q: And the OD450nm average value [4]?
A: The OD450nm average value was 2.24 OD450nm.

Q: What about the OD450nm average value [5] of the same binder?
A: Its OD450nm average value is 0.17 OD450nm.
